± gives the standard deviation of the averaged measurements.
B1: library; a variant is named by its letters at N, in order (parent)
chain: GCUGUCACCGGUGCUUGGUACGUUAUAUUCAGCCGGUCUGAUGAGUCUNNNNNNAGACGAAACAGC

Variants of: B1
Assay: normalized RNA/DNA level without ligand (relative to sTRSVctl = 100) (log10 (% of sTRSVctl)); HEK293T overexpressing SLC46A1; higher = less ribozyme self-cleavage, higher mRNA level
Conditions: without (6R,S)-folinic acid; ligand present: no
Summary of the method: (§1)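 Only sequences with at least 100 DNA reads were analyzed, from HEK293T cells transfected with 4 µg per 6-well well of ribozyme switch library plasmids 72 h before RNA extraction with EDTA. Any ligand was added 1 h before transfection. RNA level was defined as RNA over DNA reads, normalized to a spiked-in non-cleaving sequence or to the top sequences, then scaled and log-transformed. The top set was 25 sequences, and the scaling was ×100 followed by log10.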

Variant	normalized RNA/DNA level without ligand (log10)
GUUAGU	1.979 ± 0.0095
GUUAGA	2 ± 0.02
GUUAGC	1.92 ± 0.025
AUUCGG	1.952 ± 0.017
AUUCGC	2.039 ± 0.0092
AUUCGU	1.99 ± 0.0072
AUUCGA	1.992 ± 0.0073
GUGUUC	2.01 ± 0.031
GUGUUA	1.988 ± 0.015
GUGUUG	1.9429 ± 0.0015
GUGUUU	2.03 ± 0.027
CUUCGA	2.053 ± 0.0024
CUUCGG	2.063 ± 0.0068
CUUCGU	2.053 ± 0.0097
CUUCGC	2.067 ± 0.018
AUUCUU	2.02 ± 0.027
AUUCUG	1.94 ± 0.011
AUUCUA	2.005 ± 0.0047
AUUCUC	2.072 ± 0.012
UUGUUC	2.056 ± 0.017
UUGUUU	2.065 ± 0.018
UUGUUG	1.96 ± 0.026
CUUGAC	1.998 ± 0.0057
CUUGAA	1.958 ± 0.01
CUUAUG	2.013 ± 0.005
CUUAUA	1.961 ± 0.019
CUUAUC	2.089 ± 0.009
CUUUAU	1.9766 ± 0.0013
CUUUAC	2.019 ± 0.0086

Variants of: B1
Assay: normalized RNA/DNA level with ligand (relative to sTRSVctl = 100) (log10 (% of sTRSVctl)); HEK293T overexpressing SLC46A1; ligand concentration (+) RNA-Seq: 6 mM; higher = less ribozyme self-cleavage, higher mRNA level
Conditions: with (6R,S)-folinic acid; ligand present: yes
Summary of the method: as §1

Variant	normalized RNA/DNA level with ligand (log10)
GUUAGU	2.03 ± 0.044
GUUAGA	2.021 ± 0.0089
GUUAGC	1.99 ± 0.02
AUUCGG	2.04 ± 0.026
AUUCGC	2.06 ± 0.041
AUUCGU	1.97 ± 0.057
AUUCGA	2.03 ± 0.035
GUGUUC	2.012 ± 0.0073
GUGUUA	2.01 ± 0.025
GUGUUG	2.014 ± 0.015
GUGUUU	2.05 ± 0.036
CUUCGA	2.06 ± 0.038
CUUCGG	2.036 ± 0.0089
CUUCGU	2.04 ± 0.048
CUUCGC	2.072 ± 0.018
AUUCUU	2.04 ± 0.023
AUUCUG	1.99 ± 0.043
AUUCUA	1.999 ± 0.01
AUUCUC	2.04 ± 0.042
UUGUUC	2.08 ± 0.047
UUGUUU	2.08 ± 0.035
UUGUUG	2.05 ± 0.027
CUUGAC	2.033 ± 0.0045
CUUGAA	1.99 ± 0.049
CUUAUG	2.0211 ± 0.00067
CUUAUA	2 ± 0.029
CUUAUC	2.08 ± 0.033
CUUUAU	2 ± 0.048
CUUUAC	2.01 ± 0.062
